The supplement of paper PMC12042874
± gives the uncertainty stated by the source.

Assay: amyloid nucleation score (Sup35N fusion, yeast selection) (log enrichment); library NNK2; higher = more nucleation; inactive = no reads after selection
In short: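 In psi-negative yeast, Sup35N fusions carrying peptides of 20 random codons were induced with 100 μM copper sulfate for 24 hours. The cells then grew 7 days at 30°C on medium lacking adenine and uracil, and plasmid inserts from input and output were Illumina-sequenced, excluding sequences with under 100 input reads. Nucleation score is the DiMSum log enrichment of output over input reads, centred on the mode score of non-aggregating sequences.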

Row | Substance | amyloid nucleation score
1 | HCVLRSQT | 2.38 ± 0.12
2 | QSSTYLSPRLHTISDIPYNF | -0.781 ± 0.38
3 | ENGRYHFFKAEHWFCRLMMM | inactive
4 | LYLGMDYWWDV | -0.164 ± 0.33
5 | VTVNFSANARLCRLGLLNVC | -0.222 ± 0.34
6 | MYREGSTVGLYMFPYCKDQS | 0.237 ± 0.4
7 | NHMGIVRVVLMFGSYITLI | -0.174 ± 0.45
8 | AVQVLYRGTFLLPFWRVANV | -0.487 ± 1.1
9 | KMIVLK | 0.449 ± 0.41
10 | EMICVYSNFMKWVWSSFQTV | -0.832 ± 0.33
11 | NFIFDFVV | -0.03 ± 0.21
12 | NQQPKSLLYVSRRMQGTMIF | 0.089 ± 0.8
13 | NCFKECVVPHR | -0.043 ± 0.37
14 | EGLLHTYCICGFLVYHYMEV | 3.77 ± 0.054
15 | RRSQLRLILTFR | -0.223 ± 0.29
16 | CFGYWHSVRARCLRKVGHRT | 0.546 ± 0.38
17 | FYLMPDCLWGGKSSWSFLHL | -0.873 ± 0.5
18 | TFSLLGL | 4.1 ± 0.064
19 | VVGSWYKSGRKRLQRDDALS | -1.03 ± 0.55
20 | WSWLSFYLSGMAFLVRYKSG | -0.344 ± 0.56
21 | FGDWWSI | -1.1 ± 0.63
22 | KKHIWGCMRYKMLTL | -0.393 ± 1.1
23 | VMYLLNFNIMGGLSRIIGGI | 6.47 ± 0.049
24 | YEISSLRSFRSVLNWYMSGS | 4.6 ± 0.052
25 | MYPRPVYNIKLFLKEVWGQY | 6.933 ± 0.046
26 | YKWWCSW | -0.62 ± 0.76

Row | Substance | amyloid nucleation score
27 | VVSWKCIEYYVVE | -0.871 ± 0.78
28 | ILKSKVSGPIYVSE | 0.848 ± 0.23
29 | WRAIVPSGK | 0.067 ± 0.63
30 | MELTSN | inactive
31 | NLGNDGHSELRHYSNL | inactive
32 | SIFCGPDVVNTGPKLG | 0.751 ± 0.6
33 | NCSYNMNKRASSMFHSGCVV | 2.81 ± 0.14
34 | NDGMSSIRWGMTPHYVSSGD | 0.698 ± 0.14
35 | DMWTSFWSCSTYRKEYFTRC | 1.25 ± 0.11
36 | VSLYLYPVGMGMSE | 1 ± 0.68
37 | SFYRHGFTGNGTSVRGPDRS | 0.097 ± 0.79
38 | RMFVW | -0.341 ± 0.37
39 | SWKWYRS | 0.157 ± 1
40 | RVSLTIYKC | 3.24 ± 0.12
41 | VSSFVKLIWQVALINWVRMG | inactive
42 | LDDSYPCFASIITI | 1.01 ± 0.41
43 | IFDYSV | -0.874 ± 0.55
44 | HIVRNYFTLTSCAHTIHFAD | -0.861 ± 1
45 | FLCLLDRVIMTLFFRIAL | 0.453 ± 0.65
46 | VFHRVEYSWGFRFYCCCLMC | 3.91 ± 0.059
47 | TFIHN | -0.161 ± 0.19
48 | WVFGLCSIPLHCVLHGIMMG | 2.92 ± 0.16
49 | SFMDQHFS | -0.419 ± 0.63
50 | ICWPSTVDEGLPFYLWIYAM | 0.23 ± 0.39
51 | EGCMSFFKRSQYATDQDLGA | -0.24 ± 0.39
52 | SNIRISTADDSNSFLPFSSA | -0.315 ± 0.43

Row | Substance | amyloid nucleation score
53 | SCMLFEAAYPRVYMYWSRRF | -1.91 ± 0.75
54 | AFDTTPKC | 0.275 ± 0.32
55 | CVAVDDD | 0.624 ± 0.46
56 | LVVCKHVV | -0.323 ± 0.56
57 | RYIMHL | -0.105 ± 1.1
58 | TIACLEINPHAMSDYMRLCH | -0.842 ± 0.49
59 | YCDIKIEDLNLGGETGSDRR | inactive
60 | YLGVSSCLMSSSGRSLASTL | 4.39 ± 0.09
61 | RECLRLDGGPMNWV | 0.192 ± 1
62 | NRSLGNHAEYNHASRLKGDS | -0.658 ± 0.31
63 | EVVNWSR | -0.367 ± 0.35
64 | RMCDL | -1.19 ± 0.79
65 | VWRSLMCFSWNPTMHRLISV | 0.363 ± 0.53
66 | VSCCYRFSASNQIIVTPFSS | 8.119 ± 0.026
67 | CECLRDESER | 2.1 ± 0.29
68 | LHFGAGLTSSVCPSLYSQ | -0.931 ± 1.1
69 | TIFSNFGSMSLIGHGIEQVI | -1.39 ± 0.76
70 | RGALVICCNTLSCGRGRLGD | 10.22 ± 0.074
71 | ITLLGKVLSGVVKPSYPLAA | inactive
72 | CNRYWGRPHGYFFSSSMCMV | -1.28 ± 0.75
73 | QCVKLNTNVLCTVSDYNARG | 1.2 ± 0.11
74 | MRLFFLVLICAYVVESGFQC | 0.72 ± 0.25
75 | CFMAVQI | inactive
76 | EVGVV | 0.622 ± 0.18
77 | QKGYN | inactive
78 | TVAVRSPIT | -0.686 ± 0.44

Row | Substance | amyloid nucleation score
79 | DVSVNRARFPREF | 1.1 ± 0.17
80 | MDQNG | -0.427 ± 0.79
81 | KGIYIFRHLCGMDVNMGPMD | -0.764 ± 0.64
82 | FASRSCEFCEREY | 3.2 ± 0.085
83 | IVCPFKT | -1.35 ± 0.78
84 | SDPALVYRITYVIQ | -0.008 ± 0.49
85 | CTHHKCVWGIWSTFSVDSEL | -0.288 ± 1.1
86 | FSGSTIDWL | -0.302 ± 0.3
87 | DMNVVYTVCRVKARDCERDY | 5.322 ± 0.041
88 | EWIWM | -0.129 ± 0.43
89 | IRKRCGINGMYRWIWVTWYL | -1.12 ± 0.33
90 | SFYSVTSPRWH | 1.92 ± 0.17
91 | LTVLCPANLSYRIVYVLLYK | -0.865 ± 0.41
92 | TVSQFLFN | -0.559 ± 0.76
93 | SRFLDGSLLPKTNGLSQEMV | 0.122 ± 1.1
94 | VLEITLCG | 0.834 ± 0.46
95 | LAGLYYVGVVENGMDMQDRK | -0.329 ± 0.29
96 | KVLCWLRVRYLKGLGQGSAC | 0.358 ± 0.31
97 | LFDGASMSRRIVMWDMGWWG | 4.54 ± 0.046
98 | PIDKSVAVLDRREMSDQRIN | -0.753 ± 0.34
99 | VGKLS | -0.528 ± 0.29
100 | CTMWVDVCLSCDHMRYDNGG | 5.96 ± 0.093
101 | VCELGRRWDLRSVLSC | 0.624 ± 0.42
102 | LYDFRDSYAYVCLTGYKYLG | 1.02 ± 0.57
103 | EFIMTCAQVPRTFDVHSNRS | 6.479 ± 0.054
104 | QSNSSRLHSCRGAIVICI | 6.751 ± 0.066

Row | Substance | amyloid nucleation score
105 | VMWASERWYANETNSHLFSL | -0.105 ± 0.26
106 | LSMYDLYSMAR | inactive
107 | CLSASTALREGFWNPWRCGS | 0.164 ± 0.8
108 | SMGFSSVPHSYTCTVEQG | 6.06 ± 0.07
109 | YFEPSSPGVIV | inactive
110 | WVMAVVDHVLSWFYWRLCLF | 3.26 ± 0.058
111 | YRPNN | 2.43 ± 0.14
112 | GMVCVP | 0.876 ± 0.25
113 | NSVTNNIRSWIPHLDKGYGG | -0.487 ± 1.1
114 | VRDIVYRYSGGRRS | inactive
115 | NSSEINHSKG | -0.788 ± 1.1
116 | TVFFGLVCRGPVKKDM | 2.1 ± 0.17
117 | HYGTTFVISL | 3.85 ± 0.1
118 | TFSTYSFLFVKTVI | -0.417 ± 0.2
119 | VENVTDGAVSARYDDMDTSS | -0.179 ± 0.3
120 | YSFLHVIGANKFARACNNWS | -0.565 ± 0.78
121 | RITFVILYDAFGEDMDLVSL | 2.09 ± 0.12
122 | IVKYTGSKIYKFWYDLAGPL | -1.06 ± 1.1
123 | LRYSTSHSKNRRSDALNIKG | -0.739 ± 0.45
124 | KCVRKCYDIYGLLSCCGRLA | 8.844 ± 0.039
125 | SRVVGNRMYRSGLSRSSLLH | -0.263 ± 0.65
126 | SLENWLCAVPLCGESLEKVW | 0.469 ± 0.41
127 | THIAVIGISGTDEENLKLGR | 6.439 ± 0.026
128 | ICNALCLYSVNLLPGTLMGI | 7.49 ± 0.027
129 | CLFRLSSCVPTWLMQLTMWG | 0.244 ± 0.25
130 | LCSTG | 0.815 ± 0.53

Row | Substance | amyloid nucleation score
131 | CYGRIM | 1.74 ± 0.099
132 | YVNNLGRFCLLYRPWGMVNS | -0.196 ± 1.1
133 | SSVIHYRT | 0.038 ± 0.8
134 | VYRYFNLQVISFWMMARHTM | -1.32 ± 1.1
135 | MDYTFSLQTMCGVWYCYWGR | 1.31 ± 0.31
136 | YKVQTLDAPNYRFIGVFVRS | -0.711 ± 1.1
137 | IYLGVCYFSALGRDFMSKWW | 1.77 ± 0.15
138 | VDRYLSHCVGKGLDF | -0.55 ± 0.56
139 | SINSSV | -0.166 ± 1.1
140 | IVFYFVFRILSYGGSTIPVG | -1.15 ± 0.64
141 | ARNTTGGSYV | 0.504 ± 0.74
142 | ALLVILLDCLQFIYMTELNC | -0.032 ± 1.1
143 | VLTSNTANIGTLHLINIRFH | 8.173 ± 0.026
144 | ASTLPYYECEYR | 0.343 ± 0.18
145 | MWRTLGYHTNMVSA | inactive
146 | KSMLLMIMSSFGSDIWHITS | -0.337 ± 1.1
147 | FWVKVNMSLGMSNLFVYACL | 6.298 ± 0.024
148 | VKIYVFSFFMEL | 3.7 ± 0.12
149 | YTRLYFNEHDFYFFVGIMT | inactive
150 | QFFRPRDVRERAEWNLAKLV | 2.61 ± 0.12
151 | LLCVGHFFLQ | inactive
152 | CLYMRFAFHLPELRALTKSP | 0.094 ± 0.77
153 | LGMSGCVCSYVYLRGFGLIL | -0.658 ± 0.37
154 | EVLRYGAVWMISRLVGLSLP | 0.754 ± 0.31
155 | RSITGCDWFLH | 0.063 ± 1.1
156 | WSRTVYGIFCKIG | 0.208 ± 0.65

Row | Substance | amyloid nucleation score
157 | SRPTKYSKWILMPPCY | inactive
158 | QTRRIRYDWDAPQCGWVVTM | 3.82 ± 0.079
159 | SGFSLDLLVGGPCVPDLTVR | 0.228 ± 1
160 | INGCFDHPTSIETFSEEMWM | -0.533 ± 0.55
161 | VCFVWDKARAMCSFYFV | -0.596 ± 0.79
162 | KVALINYSLPMYFSVVTGLY | 2.97 ± 0.071
163 | MKFVNINGAICSVRHPSVRT | 0.089 ± 0.79
164 | RLISYNSCLSWSSWG | 3.48 ± 0.087
165 | TFSVSSYRNLP | -0.06 ± 0.79
166 | NLRPAFHDMDKQCGG | 0.045 ± 0.63
167 | KMSPQ | inactive
168 | DRRELRHDDAVVAYIDVVIE | 1.05 ± 0.28
169 | VVSHLGWTWGFKSMLGIRRS | -0.759 ± 0.29
170 | HAFLG | 0.53 ± 0.5
171 | DKRGF | inactive
172 | CRYYSNPAPSPRLVN | inactive
173 | MTGNIEIIRMCRCTTYGMTY | 1.09 ± 0.37
174 | WTTIEFRIKGNFM | 1.59 ± 0.19
175 | SCENTSSQELWYTCSIDLKL | 0.472 ± 0.66
176 | SLADDSGNRT | -0.289 ± 0.43
177 | SRFLCVKTTVVALI | 4.66 ± 0.047
